Measured values: article PMC6938348 (PLoS ONE, 2019)

What was measured:
[1] = target: T1, Her2 on cells (SKOV3, JIMT-1, MCF7) (Homo sapiens (endogenous in SKOV3, …, UniProt P04626)); assay: cell-based or functional assay
[2] = target: T1, Her2 on cells (SKOV3, JIMT-1, MCF7); assay: cell-based or functional assay; remark: listed apart in the source
[3] = target: T1, Her2 on cells (SKOV3, JIMT-1, MCF7); assay: flow cytometry on cells; saturation binding of full-size antibodies on live low-Her2 MCF7 cells, 4°C 2 h, 0 to 200 nM or 1 μM, washed, anti-human Fc AlexaFluor488-(Fab')2 detection; apparent KD; conditions: one partner purified
[4] = target: T1, Her2 on cells (SKOV3, JIMT-1, MCF7); assay: flow cytometry on cells; saturation binding of full-size antibodies on live high-Her2 SKOV3 cells, 4°C 2 h, 0 to 200 nM or 1 μM, washed, anti-human Fc AlexaFluor488-(Fab')2 detection; apparent KD; conditions: one partner purified
soluble Her2 ectodomain [5] = target: T2, soluble Her2 ectodomain (Homo sapiens (assumed; species and …, UniProt P04626); assay: SPR; antibody captured on an anti-hFc CM-5 surface, soluble Her2 ectodomain flowed (monovalent binding); single cycle kinetics in duplicate, 25°C, PBS with 3.4 mM EDTA and 0.05% Tween 20; 1:1 binding model; Biacore T200; conditions: both partners purified
T2 construct: Her2 ectodomain, soluble

soluble Her2 ectodomain [6] = target: T2, soluble Her2 ectodomain; assay: as above; conditions: both partners purified; remark: listed apart in the source

- Kd [3]: 0.87 nM
- Kd [4]: 2.41 nM
- Kd (soluble Her2 ectodomain [5]): 14.7 nM
- koff (soluble Her2 ectodomain [6]): 0.000741 s⁻¹
- kon (soluble Her2 ectodomain [6]): 100000 M⁻¹ s⁻¹
B1: bH1 full-size antibody (Parent 2) (antibody, V domains shown)
VH: not shown
VL: DIQMTQSPSSLSASVGDRVTITCRASQDIPRSISGYVAWYQQKPGKAPKLLIYWGSYLYSGVPSRFSGSGSGTDFTLTISSLQPEDFATYYCQQHYTTPPTFGQGTKVEIK
notes: heavy chain of bH1 (Parent 2) as full-size human IgG; light chain of bH1 (Parent 2), a Herceptin variant with a 4-residue insertion in CDR-L1 and a few point mutations; FSA; IgG1 is surmised (Synagis is called the IgG1 isotype control); also called 2–13; source: CHO-3E7, co-transfected, purified (MabSelect Sure); copies: 2 + 2
- IC50 of cytotoxicity, indirect ADC screen (DM1-conjugated secondary antibody), JIMT1 cells [1]: 7.4 nM
- IC50 of cytotoxicity, indirect ADC screen (DM1-conjugated secondary antibody), MCF7 cells [1]: 8.2 nM
- IC50 of cytotoxicity, indirect ADC screen (DM1-conjugated secondary antibody), SKOV3 cells [1]: 0.021 nM
- IC50 of cytotoxicity, indirect ADC screen (MMAE-conjugated secondary antibody), JIMT1 cells [1]: 10.3 nM
- IC50 of cytotoxicity, indirect ADC screen (MMAE-conjugated secondary antibody), MCF7 cells [1]: 35.6 nM
- IC50 of cytotoxicity, indirect ADC screen (MMAE-conjugated secondary antibody), SKOV3 cells [1]: 0.078 nM
- IC50 of cytotoxicity, antibody directly conjugated to DM1, SKOV3 cells [2]: 0.075 nM
- IC50 of cytotoxicity, antibody directly conjugated to PNU, JIMT1 cells [2]: 0.5 nM
- IC50 of cytotoxicity, antibody directly conjugated to PNU, MCF7 cells [2]: 2.02 nM
- IC50 of cytotoxicity, antibody directly conjugated to PNU, SKOV3 cells [2]: 0.077 nM
